Experimental data: patent US20130171061A1

Assays:
[1] = biological target: Human transferrin receptor on K562 cells (human) (UniProt P02786); test: FACS of K562 cells with BSA-coupled fluorescent beads (negative control), 4 C, 1 h
[2] = biological target: Human transferrin receptor on K562 cells (human) (UniProt P02786); test: FACS of K562 cells with BSA-coupled fluorescent beads (negative control), 37 C, 1 h
[3] = biological target: Human transferrin receptor on K562 cells (human) (UniProt P02786); test: FACS of K562 cells with BSA-coupled fluorescent beads (negative control), 37 C with sodium azide, 1 h

Chain of Human transferrin receptor on K562 cells (human) (P02786 whole entry): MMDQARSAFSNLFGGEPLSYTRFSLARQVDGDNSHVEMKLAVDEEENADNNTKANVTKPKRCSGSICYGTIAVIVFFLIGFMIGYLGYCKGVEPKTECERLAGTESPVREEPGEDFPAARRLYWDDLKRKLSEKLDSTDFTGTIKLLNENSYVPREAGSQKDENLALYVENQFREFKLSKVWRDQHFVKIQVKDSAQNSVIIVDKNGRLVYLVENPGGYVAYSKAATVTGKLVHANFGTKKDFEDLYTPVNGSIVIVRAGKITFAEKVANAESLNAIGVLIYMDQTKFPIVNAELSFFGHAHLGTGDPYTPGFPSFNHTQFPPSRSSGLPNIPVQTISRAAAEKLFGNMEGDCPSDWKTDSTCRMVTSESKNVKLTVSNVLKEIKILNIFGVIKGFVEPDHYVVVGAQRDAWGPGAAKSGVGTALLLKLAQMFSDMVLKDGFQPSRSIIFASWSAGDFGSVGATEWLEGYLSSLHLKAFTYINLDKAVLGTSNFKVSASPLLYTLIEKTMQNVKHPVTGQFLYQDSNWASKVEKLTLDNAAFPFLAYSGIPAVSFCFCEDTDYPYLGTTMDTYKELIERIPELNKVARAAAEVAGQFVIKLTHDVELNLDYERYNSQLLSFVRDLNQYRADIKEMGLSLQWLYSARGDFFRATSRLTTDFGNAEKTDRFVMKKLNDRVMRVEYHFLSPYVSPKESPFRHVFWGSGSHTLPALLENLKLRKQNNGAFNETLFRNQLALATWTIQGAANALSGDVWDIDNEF

- Mean fluorescence intensity (MFI) [1]: 1.45 MFI
- Mean fluorescence intensity (MFI) [2]: 9.07 MFI
- Mean fluorescence intensity (MFI) [3]: 3.49 MFI
Substance: BSA (negative control on fluorescent beads) (from UniProt P02769 25-607)
